Measurements published in publication PMC10397244, “BIK1 protein homeostasis is maintained by the interplay of different ubiquitin ligases in immune signaling” (Nature Communications, 2023).

Columns and labels:
Test in all cases: pull-down; GST fusion protein or GST immobilised on GSH beads, incubated with purified recombinant protein; 20 mM Tris-HCl pH 7.5, 150 mM NaCl, 3 mM EDTA, 0.5% Triton X-100, 4 C, 2 h; immunoblot
Conditions in all cases: both partners purified
[1] = target: T1, RGLG2 (recombinant, in vitro; tag of the experiment not told) (Arabidopsis thaliana, UniProt Q9LY87 1-468)
T1 construct: RGLG2, Arabidopsis; CDS subcloned into His-, GST- or MBP-tag vectors; also called RING DOMAIN LIGASE 2; source: E. coli BL21, purified
T1 sequence (looked up): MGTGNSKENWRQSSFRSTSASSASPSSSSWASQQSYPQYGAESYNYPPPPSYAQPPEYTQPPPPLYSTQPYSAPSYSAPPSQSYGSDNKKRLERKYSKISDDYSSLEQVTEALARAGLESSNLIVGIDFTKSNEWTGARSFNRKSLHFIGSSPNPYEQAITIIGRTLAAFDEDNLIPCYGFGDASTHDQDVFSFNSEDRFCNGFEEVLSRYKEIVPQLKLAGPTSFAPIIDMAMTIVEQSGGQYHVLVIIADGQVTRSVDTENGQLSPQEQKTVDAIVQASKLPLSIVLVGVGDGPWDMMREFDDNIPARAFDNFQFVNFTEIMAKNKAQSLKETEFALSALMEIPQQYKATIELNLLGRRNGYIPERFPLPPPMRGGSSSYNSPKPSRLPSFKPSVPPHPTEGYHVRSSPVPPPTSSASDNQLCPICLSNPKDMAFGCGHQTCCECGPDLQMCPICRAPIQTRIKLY

His-FLAG-RGLG1 = target: T2, His-FLAG-RGLG1 (Arabidopsis thaliana, UniProt Q9SS90 1-489)
T2 construct: RGLG1, Arabidopsis; CDS subcloned into modified pET28a; also called RING DOMAIN LIGASE 1; source: E. coli BL21, purified (Ni-NTA); not shown: FLAG, N-terminal, kept
T2 sequence (looked up): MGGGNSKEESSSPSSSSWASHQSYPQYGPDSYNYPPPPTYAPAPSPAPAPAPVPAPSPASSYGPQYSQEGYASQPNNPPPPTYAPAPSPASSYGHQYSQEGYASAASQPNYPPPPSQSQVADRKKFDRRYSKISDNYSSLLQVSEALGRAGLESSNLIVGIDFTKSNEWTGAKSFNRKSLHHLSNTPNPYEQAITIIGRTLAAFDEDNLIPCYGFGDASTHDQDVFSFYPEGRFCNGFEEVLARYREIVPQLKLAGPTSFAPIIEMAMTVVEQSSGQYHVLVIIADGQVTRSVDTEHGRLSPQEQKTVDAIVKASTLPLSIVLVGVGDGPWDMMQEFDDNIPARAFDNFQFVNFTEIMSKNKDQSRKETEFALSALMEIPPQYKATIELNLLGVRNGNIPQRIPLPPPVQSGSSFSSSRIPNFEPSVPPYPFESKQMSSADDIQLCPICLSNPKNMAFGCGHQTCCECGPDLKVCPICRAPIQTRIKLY

GST-RGLG2 = target: T3, GST-RGLG2 (Arabidopsis thaliana, UniProt Q9LY87 1-468)
T3 construct: RGLG2, Arabidopsis; CDS subcloned into a GST-tag vector; also called RING DOMAIN LIGASE 2; source: E. coli BL21 (recombinant); immobilised on GSH beads; not shown: GST, N-terminal, kept
T3 sequence (looked up): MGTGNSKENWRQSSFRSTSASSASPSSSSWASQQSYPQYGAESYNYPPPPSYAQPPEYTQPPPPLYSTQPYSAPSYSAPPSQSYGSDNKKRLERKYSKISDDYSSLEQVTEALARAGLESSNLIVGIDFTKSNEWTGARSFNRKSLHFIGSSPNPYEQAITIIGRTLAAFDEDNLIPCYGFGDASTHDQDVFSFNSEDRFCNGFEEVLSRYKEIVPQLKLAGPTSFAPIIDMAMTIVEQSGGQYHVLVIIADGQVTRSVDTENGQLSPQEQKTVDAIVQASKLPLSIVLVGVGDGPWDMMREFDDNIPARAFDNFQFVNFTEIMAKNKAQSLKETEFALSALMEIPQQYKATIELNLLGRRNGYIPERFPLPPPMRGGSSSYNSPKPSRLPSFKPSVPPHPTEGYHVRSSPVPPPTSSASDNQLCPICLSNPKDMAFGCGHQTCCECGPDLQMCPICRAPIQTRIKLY

[2] = target: T4, RGLG1 (recombinant, in vitro; tag of the experiment not told) (Arabidopsis thaliana, UniProt Q9SS90 1-489)
T4 construct: RGLG1, Arabidopsis; CDS subcloned into His-, GST- or MBP-tag vectors; also called RING DOMAIN LIGASE 1; source: E. coli BL21, purified
T4 sequence (looked up): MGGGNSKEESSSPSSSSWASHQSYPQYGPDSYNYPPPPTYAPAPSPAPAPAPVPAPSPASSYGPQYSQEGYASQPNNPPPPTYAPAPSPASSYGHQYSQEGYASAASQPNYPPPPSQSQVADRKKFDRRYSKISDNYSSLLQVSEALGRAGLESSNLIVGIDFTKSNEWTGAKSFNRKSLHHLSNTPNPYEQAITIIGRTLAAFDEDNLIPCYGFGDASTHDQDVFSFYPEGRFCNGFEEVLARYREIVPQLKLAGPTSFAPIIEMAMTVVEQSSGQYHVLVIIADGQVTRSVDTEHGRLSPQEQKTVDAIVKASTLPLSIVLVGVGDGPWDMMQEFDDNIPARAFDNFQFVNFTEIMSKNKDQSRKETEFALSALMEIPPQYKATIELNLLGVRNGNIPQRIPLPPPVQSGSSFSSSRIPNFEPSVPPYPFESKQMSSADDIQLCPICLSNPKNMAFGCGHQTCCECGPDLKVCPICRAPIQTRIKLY

B1: GST-BIK1 (natural protein, Arabidopsis thaliana, UniProt O48814 1-395, looked up)
chain: MGSCFSSRVKADIFHNGKSSDLYGLSLSSRKSSSTVAAAQKTEGEILSSTPVKSFTFNELKLATRNFRPDSVIGEGGFGCVFKGWLDESTLTPTKPGTGLVIAVKKLNQEGFQGHREWLTEINYLGQLSHPNLVKLIGYCLEDEHRLLVYEFMQKGSLENHLFRRGAYFKPLPWFLRVNVALDAAKGLAFLHSDPVKVIYRDIKASNILLDADYNAKLSDFGLARDGPMGDLSYVSTRVMGTYGYAAPEYMSSGHLNARSDVYSFGVLLLEILSGKRALDHNRPAKEENLVDWARPYLTSKRKVLLIVDNRLDTQYLPEEAVRMASVAVQCLSFEPKSRPTMDQVVRALQQLQDNLGKPSQTNPVKDTKKLGFKTGTTKSSEKRFTQKPFGRHLV
notes: BIK1, Arabidopsis; pGEX-BIK1 (modified pGEX-6P-1); also called BIK1 fused to a GST tag; source: E. coli BL21, purified; immobilised on GSH beads; not shown: GST, N-terminal, kept
[1]
  binding result: binds
His-FLAG-RGLG1
  binding result: binds

B2: His-FLAG-PUB25 (natural protein, Arabidopsis thaliana, UniProt Q9LT79 1-421, looked up)
chain: MPRNIEPLDLGIQIPYHFRCPISLELMQDPVTVCTGQTYDRASIESWVSIGNNTTCPVTRAPLSDFTLIPNHTLRRLIQEWCVANRSNGVERIPTPKQPADPTSVRALLSQASAITGTHVSVRSRAAALRRLRGFARDSDKNRVLIAAHNATEILIKILFSETTSSELVSESLALLVMLPITEPNQFVSISSDPGRVEFLTRLLFDSSIETRVNAAALIEIVSTGTKSADLKGSISNSESVFEGVLDLLRNPISSRRALKIGIKTLFALCSVKSTRHIAITAGAPEILIDRLAADFDRCDTERALATVELLCRTPEGCAAFGEHALTVPLLVKTILRVSDRATEYAAGALLALCTAEERWREEAAGAGVVVQLLLMVQSECTERAKKKAQKLLKLLRDSWPDYNSFANSDDFGCSSQVVPF
notes: PUB25, Arabidopsis; CDS subcloned into modified pET28a; also called PLANT U-BOX PROTEIN 25; source: E. coli BL21, purified (Ni-NTA); not shown: FLAG, N-terminal, kept
GST-RGLG2
  binding result: binds

B3: PUB25 (recombinant, in vitro; tag of the experiment not told) (natural protein, Arabidopsis thaliana, UniProt Q9LT79 1-421, looked up)
chain: MPRNIEPLDLGIQIPYHFRCPISLELMQDPVTVCTGQTYDRASIESWVSIGNNTTCPVTRAPLSDFTLIPNHTLRRLIQEWCVANRSNGVERIPTPKQPADPTSVRALLSQASAITGTHVSVRSRAAALRRLRGFARDSDKNRVLIAAHNATEILIKILFSETTSSELVSESLALLVMLPITEPNQFVSISSDPGRVEFLTRLLFDSSIETRVNAAALIEIVSTGTKSADLKGSISNSESVFEGVLDLLRNPISSRRALKIGIKTLFALCSVKSTRHIAITAGAPEILIDRLAADFDRCDTERALATVELLCRTPEGCAAFGEHALTVPLLVKTILRVSDRATEYAAGALLALCTAEERWREEAAGAGVVVQLLLMVQSECTERAKKKAQKLLKLLRDSWPDYNSFANSDDFGCSSQVVPF
notes: PUB25, Arabidopsis; CDS subcloned into His-, GST- or MBP-tag vectors; also called PLANT U-BOX PROTEIN 25; source: E. coli BL21, purified
[2]
  binding result: binds
